From the DeepSol protein solubility set

Test: soluble on expression in E. coli; label from the status in PepcDB or PDB records

| Sequence | soluble on expression in E. coli |
| --- | --- |
| MGLVIYDTLARRKVPFEPAVPGHVGIYVCGPTVYADPHLGHARGPVVYDVLRRYLLHKGYKVRFVSNITDVGHLTDDADEGEDKIVRRAKLERLEPMEVAEKYTWSYFDAMQALNVLRPSIAPRASGHIPEMLELTERLLARGVAYERKGSVYFRVRSFPEYGKLSGKRLEELRAGARVEVREEKEDPLDFALWKAAEPGHIMRWKSPWGEGYPGWHIECTAMSLKYLGEGFDLHAGGIDLQFPHHECEIAQAEAAGFRFARHWMHHNHVLLEGEKMAKSTGNLVLLHDLLEAHEPMALRFYLLQTHYRSPMDFTWEGLESAKRGYGRLLHAYREVRGRKKTAPPGTTPELERALDALEKAFMEAIEDDLSTPEALAALFAFLPELHKLLPEAKAESLARAEAVFHTLGEGILGLFPERVLEERVSGPLLEGLIALLLELREEARRAKDYEKSDLIRERLRALGVIVEDTKEGPRWRLER | soluble |
| MGSDKIHHHHHHMSNSSRLSVASNSQDATSPLRLLVLSNGHGEDVIAVRILQELQRQSNPPEIFALPLVGEGRAYQQLEIPLIGSVRTMPSGGFIYMDGRQLARDVRGGLLQLTLSQIKAVRRWVSSQKKLGNKRAILAVGDIVPLLFATFSGANYAFVGTAKSEYYVRDEAGLLPRKSKDARWENFSGSVYHPWERWLMSRRRCKAVFPRDVLTTETLKQWPIPAFNLGNPMMDGLQPTFSRQQFYSRDSHQQETVRPLMVTLLPGSRPPEAYTNWEKIMIAVSALMASFQERDSVFYTSGTVVFLGAIAPGLDSNILSQSVQSQGWRAESVCPIQLPDPNILTFKQRNAYLLLTQQSYNDCLHLGDFAIAMAGTATEQFIGLGKPAIAIPGNGPQYNPAFAEAQSRHLGSSLILVEQPAEVAEIVQSLFKDPDILQIIAENGLRRMGKPGAALRIAECLQERLS | not soluble |
| MKCYFRSFDAGIGDCNIIRLVKNEGEQYVIMVDCGSYTEPLKEYLQNALHNHIDLLIATHIDGDHIQGIATMLKKHEGLTVGEIWYNCYKRTKGAEYIELNDQQKAILKQIQKALPVEFDAINYREITATQGKTLAQTILCNEKFKGVWKTEYITSNTEDFDIPGGFGKIVFLAPRQEALKAIENKFKEAFDKYFMQAWNESIENVEELQELLIRLVDAYQDKFGGKQISAKNKPVYNVAFVRKQAKEEGADDSDTNCSSIAFMLECGEHRIAMLGDAFADIIEETIDNKYKDQAKPMECDAIKVSHHGSNGNSSKTLLDRINSHIYFIPGGKGEKYPAWGTFGRIAEKHKDDQAKLIVFSRQCTITEKMNGLNEEVKRELGVETIITEQEYELFEW | not soluble |
| MITAERYHDISMGHRVVGHDHKCRHLHGHNYRIHFICSAPALDSIGRVVDFGVIKELLCQWLEDHWDHKMMLWEQDPLLPALRATVPDDLVAVPFNPTAENMAVYLTEVVGPMQLAGTGVTLIGCRVDETRKCSASYTL | not soluble |
| GPGSMLRRQLHLSAIGGVSAAAAAVLDGIGPSSAAAATGTLSSSSTSLSVMASVSPLLMPCRGVKLVNPIGKQGSQHYGLEPKLEAGRDTQLKHTEMYDGYTDDFGVFKEGPPVTLRLEYVRSPDHGYSQHILQKDIWSPFQVGANMMSYTPLYYDWKGFSSRDYFGHRSGTNPGSKVLLGHYRRDEVRSWGYRIMVNHKPQKRIPKWLACVVHIPRKKTFLGFFLYANGAYVAELLTYKQLPRIIYNKAFQGCLPTIGQTVSLTEVTYGKEIHSVEMYPGHGGVICRASGTAAVVLRGSEPNLVPLLLPSKEVRLFDNMCHAVFGRRAGVMYNKQRNFSKRSVEENMPHRPKVHSKTKRVSSHPAGGGNGGSPNLLTPLDWRIHPRNCVKTKYWLSGYILRGRQYNRNQTVADLKSKTYSWANRDPVYR | not soluble |
| MTMQHASSAGRRPAVPVYLKIRNAIRDAISNAAYAPGDLLPSETELAKRYATTRATVVHAIQQLVFEGLVERKRGVGSFVAQPKLSSTVDTHRVAYFEQDAFARDLTYEVIGYGKAVVEDHVRDTLRLGRGEPVYRLQRLRLLLGKPIAFELRYLPALVGARLTAEMLARRSVQSLLDEEVGMPITRFLNAVRVALVPAAVARHLQLEKGRPVMVRTHTFLDAADTPLLWGETLYREEYQINYVLTAMQAPDEAVGGRPRKGAGRA | not soluble |
| MGSDKIHHHHHHMPRPYTLFTGQWADLPFEEVARLASGWGYDGLEIAVSGDHLDAWRWDEPGYVQSKLAVLEKYNLKVWAISNHLKGQAVCDDPIDFRHEAIVGSKVWGDGDPEGVRTRAAEEMKHTARLAKALGVDTVVGFTGSSIWQYVAMFPPVPEKVIQAGYQDFADRWNPILDVFDECGVRFAHEVHPSEIAYDYWTTVRTLEAIGHREAFGLNWDPSHFMWQGIDPVSFIWDFKDRIYHVDCKDTKLRPTGRNTVLGSHLPWGDPRRGWDFVSAGRGDVPWESSFRALTAIGYDGPISVEWEDAGMDRLHGAPEALAALKKFDFPASQTSFDAAFSSKD | not soluble |
| MTTTKANLTEFEQQLVDKAIGAMENAYCKYSNFKVGAALVCDDGEIIIGANHENASYGATICAERSAIVTALTKGHRKFKYIVVATELEAPCSPCGVCRQVLIEFGDYKVILGSSTSDQIIETTTYELLPYAFTPKSLDDHEKETEERKHHNDHNNKE | not soluble |
| MGSDKIHHHHHHMSYQIEIGSIRCFVVAAEELHFRRAAIRLNMSQPTLSQQIKRLEELMGVQLFIRSTRRVDLTRAGASFLDHARDILLKIDEAILNAKLEAGGLSPGGEELIIGAISPATSQLLPLILSRFRQRFPRTRLAIKEVDSIELLRGIERGDFHVGLMRPPSNSNLVRFRHLLSERFVAVMPRQSALARKPALRLSDFAGHGVFALKRFELSCFETVYEQLSGAGLLIENDIAVSDTNTALALVTAGAGITFLPEWVSAMAPDGVVTRVVDDMSVEISMAVGWNPDCPVPGILPFVEFATLAAQNLISARK | not soluble |
| MLHILINFINFGKMFTLGNIMKFKKIYIELSDICGLKCDFCPSQKGIRGVMSEEKFQNLAYEISNKAELFTFHLLGDPLLLPNLENYLKIAKDEAMKLEITTSGFYLNSKNQALLLGYENIHQINISLMSFLSQSKISLEQYFKPILELCKKHLEQKSLSFINLRLWNLDANFKAPKSNLKIYEFLAKEFEAKIDANLSKNRLQRHILLHQNKLFKWPNLKDEPLYKKGKCHALKEQIGILSDGSLVPCCLDTKADINLGNVFENNFDKLFRSPRIKMMKKAFEEDKRIEKLCQTCEFFKARLGD | not soluble |
| MGSDKIHHHHHHMKIGIVGLGRVGSSTAFALLMKGFAREMVLIDVDKKRAEGDALDLIHGTPFTRRANIYAGDYADLKGSDVVIVAAGVPQKPGETRLQLLGRNARVMKEIARNVSKYAPDSIVIVVTNPVDVLTYFFLKESGMDPRKVFGSGTVLDTARLRTLIAQHCGFSPRSVHVYVIGEHGDSEVPVWSGAMIGGIPLQNMCQICQKCDSKILENFAEKTKRAAYEIIERKGATHYAIALAVADIVESIFFDEKRVLTLSVYLEDYLGVKDLCISVPVTLGKHGVERILELNLNEEELEAFRKSASILKNAINEITAEENKHQNTSG | not soluble |
| MSLKGDYFFMDRRPLILVAEENLHNLELLNSHMKTLNYDCICAKQGVRAIILAQTQKPDLIILDMILSDLSGSQVINHLKQDSKTANIPIIAVIPFILVQNQDHLFLTGADDYITKPYNFIQLNTLITHYVNRRHSSSLLSEGHHHHHH | soluble |
| KGKLPPVVHGTTPFVGHIIQFGKDPLGFMLKAKKKYGGIFTMNICGNRITVVGDVHQHSKFFTPRNEILSPREVYSFMVPVFGEGVAYAAPYPRMREQLNFLAEELTVAKFQNFAPSIQHEVRKFMKANWNKDEGEINILDDCSAMIINTACQCLFGEDLRKRLDARQFAQLLAKMESCLIPAAVFLPWILKLPLPQSYRCRDARAELQDILSEIIIAREKEEAQKDTNTSDLLAGLLGAVYRDGTRMSQHEVCGMIVAAMFAGQHTSTITTTWSLLHLMDPRNKRHLAKLHQEIDEFPAQLNYDNVMEEMPFAEQCARESIRRDPPLVMLMRKVLKPVQVGKYVVPEGDIIACSPLLSHQDEEAFPNPREWNPERNMKLVDGAFCGFGAGVHKCIGEKFGLLQVKTVLATVLRDYDFELLGPLPEPNYHTMVVGPTASQCRVKYIKKKKAAA | soluble |
| MGSDKIHHHHHHMVYPVKDIQSVRDLALLAIRNKVSLEQQVETLGFESETYDYSSLLADLKVLPPLDHPDPTHCLISGTGLTHLGSASARDKMHQQNLSNDSSVTDTMRIFQWGLQKGRPAEGQIGAQPEWFYKGDGSIVVRPGAELPLPPFAEDGGEEPEIAGLYVIGEDLKPYRIGFALGNEYSDHVMERRNYLYLAHSKLRFCSFGPALRTGELPKHLVGTSRLRRDGQIIWEKEFLSGEDNMCHSLANLEYHHFKYQQFLKAGDVHIHYFGTATLSFADGIQAQVNDEFEIEMKEFGHPLKNKLAHMQPELPIGSVITL | not soluble |
| NIYDVAHDLDKGIRETPEFISLQDAYREVNENADAKAKFERFRDVQVTIQEKQMTGQEIDDETVNVAQQVAQEVQENELIVKLMEKEQAMSTIINDLNRIIMTPLQDLYNVA | not soluble |
| MILPPIPTPFDREGRLDEEAFRELAQALEPLVDGLLVYGSNGEGVHLTPEERARGLRALRPRKPFLVGLMEETLPQAEGALLEAKAAGAMALLATPPRYYHGSLGAGLLRYYEALAEKMPLFLYHVPQNTKVDLPLEAVEALAPHPNVLGIKDSSGDLSRIAFYQARLQEFRVYTGHAPTFLGALALGAEGGILAAANLAPRAYRALLDHFREGRLAEAQELQKKLFPLGDLLAKGGVPLLKQALRHLGLPAGYPRPPYPAESPLWERFLPVLEGLKEEGWVL | soluble |
| MGSDKIHHHHHHMAHPLSRIIDQLKREPSRTGSIVITVFGDAIVPRGGSVWLGTLLEFFESLDIDSGVVRTAMSRLAADGWLTREKVGRNSFYRLADKGHQTFEAATRHIYDPPPSDWTGRFELLLINGEDRDASREALRNAGFGSPLPGVWVAPSGVPVPDEAAGAIRLEVSAEDDSGRRLLSASWPLDRTADAYLKFMKTFEPLRTAIGRGTTLSDADAFTARILLIHHYRRVVLRDPLLPESLLPADWPGRAARELCGEIYRALLAPSEQWLDGHGTNEKGPLPAARKLLERRFGA | not soluble |
| MGSDKIHHHHHHMKVKVGVVGATGEVGRTMVKVLEEFNVPVTELRLFASERSVGKEIEFKGEKFKVELLTEESMKWKCDYFLFSAGASVSRKFAPIAAENGVTVIDNSSAFRMEKEIPLVVPEVNAYLLKGYTGIIANPNCSTIQMILSIYKLHEVYGIEEIFVSTYQSVSGAGHKGIEELLAQERGENVMKVFPKPIHRNVIPLIGDIQENLFSQEEMKMVNETRKILNDYSIRVYPTTVRVPVLYGHSEAIMVRLKKPYESLEKVREVIASGEDVVVTDDLITPVDVAGKNETYVCRLRATDERSILFWNVADNIRVGAATNAVRILLKHAEMNGKV | not soluble |
| MSLAIQMTTKTTYQWPQSKDIYPYRPGRFDAPKHWRYNLRSFLNRGSIRRFEQFINQHPFLIDIFNTHLDYSYPVACRFLDKRFNASQRFHAVCENLLFLPEKLTALSTPLWEKPLSFGEVIPDFEMTLSMTTHQPMEGYWVLELWHKPRNELVYLLTFAKLGDALLIAVVQGPNFEGSKEMVKQLTKLCHGLRPAYLMVETMKSLTKILGYNKLLGIPQKYQNKSRFIQSKQYTVDYDAIFGESGGELKDYWELPLEMDRNLDDIPSKKRSMYRKRYAMLDDLAKVIEEKLGLEGHHHHHH | not soluble |
